Reference: patent publication US7696171
Read-outs that look alike come from different tables or passages of the source.

Key:
[1] = molecular target: FGF receptor (FGFR); experiment: cell-based or functional assay
[2] = molecular target: FGF receptor (FGFR); experiment: cell-based or functional assay; remark: listed apart in the source

A mitogenic activity (NIH 3T3 fibroblast proliferation, EC50) (fold reduction) [1] of 2 and a mitogenic activity (NIH 3T3 fibroblast proliferation, EC50) (fold reduction) [2] of 3 were found for “FGF-1 Glu87→Val/Pro134→Val mutant (in the WT* Cys117→Val background) (from UniProt P05230 16-155) (ligand)” in this work.

A mitogenic activity (NIH 3T3 fibroblast proliferation, EC50) (fold reduction) [2] of 1000 was found for “FGF-1 Lys12→Val/Asn95→Val mutant (in the WT* Cys117→Val background) (from UniProt P05230 16-155) (ligand)” in this work.
